Assay results as given in patent US20090117043A1 (Human Genome Sciences, published 2009).
Where no end group is shown, it is not given here.

T1: mature form of the neurokinin B polypeptide (amino acids 81 to 90 of SEQ ID NO:2) (human, ends and bridges not checked)
T1 construct: also called NKB; neurokinin 3 (NK3)
T1 peptide: DMHDFFVGLM

B1: NO24B01 (scFv)
scFv: QVQLQQSGNEVKKPGSSVKISCKASGAPFNSYVISWVRQAPGQGLEWVGGVVPIFGTAHYAHQFQGRVTIIADKSTSTVYMELRGLTSDDTAEYFCARQGPYGKLDDWGQGTMVTVSSGGGGSGGGGSGGGGSALSYELTQPPSASGTPGQRVTISCSGSSSNIGSNYVYWYQQFPGTAPKLLMYRNNQRPSGVPDRFSGSKFGTSASLAISGLRSEDEADYYCAAWDDSLTGRVFGGGTKVTVLG
B2: NO23E01 (scFv)
scFv: QVQLVQSGGGLVQPGRSLRLSCAASGFTFDDYAMHWVRQAPGKGLEWVSGISWNSASIGYADSVKGRFTISRDNAKNSLYLQMNSLRGEDTALYYCAKGARDALDIWGKGTLLTVSSGGGGSGGGGSGGGGSQSVLTQPPSVSAAPGQKVTISCSGSTSNIGNNYVSWYQQHPGKAPKLMIYDVSKRPSGVPDRFSGSKSGNSASLDISGLQSEDEADYYCAAWDDSLSEFLFGTGTKLTVLG
B3: NO15D10 (scFv)
scFv: QVQLVQSGAEVKKPGSSVRISCKASGGSFRTYVVSWVRQAPGQGLEWMGGIIPVYGTPNYAQKFQGRVTITADEPTRTTYMELSSLRSEDTGVYYCARNGGGLDYWGQGTMVTVSSGGGGSGGGGSGGGGSQSVLTQPPSVSAAPGQKVTISCSGSTSNIGNNYVSWYQQHPGKAPKLMIYDVSKRPSGVPDRFSGSKSGNSASLDISGLQSEDEADYYCAAWDDSLSEFLFGTGTKLTVLG
B4: NO24E07 (scFv)
scFv: QVQLQESGGGLEQPGRSLRLSCTASGFTFDDYPMHWVRQAPGKGLEWVSGISGNSDRIAYADSVKGRFTISRDNSKNTLWLQMNSLRAEDTAIYYCARAARNWFDPWGQGTLVTVSSGGGGSGGGGSGGGGSQSVLTQPPSVSAAPGQKVTISCSGSTSNIGNNYVSWYQQHPGKAPKLMIYDVSKRPSGVPDRFSGSKSGNSASLDISGLQSEDEADYYCAAWDDSLSEFLFGTGTKLTVLG
B5: NO24F09 (scFv)
scFv: QVQLQQSGAEVKKPGASVKVSCKASGYTFTGYYMHWVRQAPGQRLEWMGGILPFFGTTSYAQNFHGRLTITADESTRTAYMELSSLKSEDTAVYYCARDESADPKNAFDIWGRGTMVTVSSGGGGSGGGGSGGGGSQSVLTQPPPVSAAPGQKVTISCSGSTSNIGNNYVSWYQQRPGKAPKLMIYDVSKRPSGVPDRFSGSKSGNSASLDISGLQSEDEADYYCAAWDDSLSEFLFGTGTKLTVLG
B6: NO23F05 (scFv)
scFv: QVQLVQSGAEVKKPGFSVKVSCKASGGSFSNYVISWLRQAPGQGLEWMGGIMPIFGNANYAQKFQDRVTITADKSTSTAYMELSSLRSDDTAVYYCARDQIVVDPVTKGAYYSGLDVWGRGTMVTVSSGGGGSGGGGSGGGGSAQSVLTQPPSASGTPGQRVTISCSGGSSNIGANAITWFQQLPGTAPKLLIYHNNQRPSGVPDRFSGSKSGTSGSLAISGLQSEDEADYYCAVWDNSLNAMLFGGGTKLTVLG
B7: NO25C01 (scFv)
scFv: QVQLVQSGAEVKKPGTSVKVSCKAAGDTFRSYIISWVRQAPGQGLEWVGGIIPMFGTSNYAQKFQGRVTITADDSTSTAYMELSSLRSEDTAVYYCARTAQGGSYYNYWGQGTPVTVSSGGGGSGGGGSGGGGSQSVLTQPPSVSAAPGQKVTISCSGSTSNIGNNYVSWYQQHPGKAPKLMIYDVSKRPSGVPDRFSGSKSGNSASLDISGLQSEDEADYYCAAWDDGLSEFLFGTGTKLTVLG
B8: NO24D08 (scFv)
scFv: EVQLVQSGAEVKRPGASVKISCRTSGYTFTSYYIHWVRQAPGQGLEWLAIINPTAGNTYYTQDFQDRVTVTRDTSTSTVYMELRGLNSEDTAVYYCASPYGVRNAFDVWGQGTMVTVSSGGGGSGGGGSGGGGSQSVLTQPPSVSAAPGQKVTISCSGSTSNIGNNYVSWYQQHPGKAPKLMIYDVSKRPSGVPDRFSGSKSGNSASLDISGLQSEDEADYYCAAWDDSLSEFLFGTGTKLTVLG
B9: NO24D01 (scFv)
scFv: QVQLQQSGGGVVQPGRSLRLSCAASGFTFDDYAMHWVRQAPGKGLEWVSGISWNSGSIGYADSVKGRFTISRDNAKNSLYLQMNSLRAEDTALYYCAKTGGGNSLDYWGRGTLVTVSSGGGGSGGGGSGGGGSQSVLTQPPSVSAAPGQKVTISCSGSTSNIGNNYVSWYQQHPGKAPKLMIYDVSKRPSGVPDRFSGSKSGNSASLDISGLQSEDEADYYCAAWDDSLSEFLFGTGTKLTVLG
B10: NO25E05 (scFv)
scFv: QVQLQQSGAEVKKPGSSVKVSCKASGDTFSSNTISWVRQAPGQGLEWMGGIIPIIGTPHYAQKFQGRVTITADRSTSTAYMELTNLRSEDTAVYFCARNRVGTSSFDFWGQGTMVTVSSGGGGSGGGGSGGGGSALPVLTQPPSASGTPGQRVTISCSGSSSNIGSNTVNWYQQLPGTAPKLFIYSNNQRPSGVPDRFSGSKSGTSASLAISGLQSEDEADYYCSSWDDSLNLIFGGGTKVTVLG
B11: NO24B07 (scFv)
scFv: QVQLQQSGAEVKKPGSSVKVSCKASGGTFSSYAISWVRQAPGQGLEWMGGSIPKFRTANYAKKFQGRVTITADESTSTAYMELSSLRSDDTAVYYCARGSTYNLRNAFDIWGKGTLVTVSSGGGGSGGGGSGGGGSAQSVVTQPPSASGTPGQRVTISCSGGSSNIGRNTVNWYQQVPGTAPKLLIYTNNQRPSGVPDRFSGSKSGTSASLAISGLQSEDEADYYCAAWDDSLNDVEFGGGTKLTVLG
B12: NO24C05 (scFv)
scFv: QVQLQQSGPGLVKPSQTLSLTCAISGDSVSSNTAAWSWIRQSPSRGLEWLGRTYYSRSKWYKDYAVSVKSRITINPDTSKNQFSLQLDSVTPEDTAVYYCTREGYYDYSGVVDYWGQGTTVIVSSGGGGSGGGGSGGGGSQSVLTQPPSASGSPGQSVTISCTGTSSDVGGYNYVSWYQQHPGKAPKFMIYDVSKRPSGVSNRFSGSKSGNTASLTISGVQAEDEADYYCSSYTSASTVIFGGGTKLTVLG
B13: NO15D08 (scFv)
scFv: QVQLLQSAPEVKKPGSSVRVSCKTSGGTFSSQLINWVRQPPGQGPEWMGGIIPIFGTANYAQKFQGRVTITADESTSTAYMELSSLRSEDTAVYYCARDLTAGRFDAFHIWGRGTLVTVSSGGGGSGGGGSGGGGSQSVLTQPPSVSAAPGQKVTISCSGSTSNIGNNYVSWYQQHPGKAPKLMIYDVSKRPSGVPDRFSGSKSGNSASLDISGLQSEDEADYYCAAWDDSLSEFLFGTGTKLTVLG
B14: NO24F07 (scFv)
scFv: QVQLQQSGAEVKKPGSSVNVSCKASGGTFDTFGISWVRQAPGKGLEWMGVIAHDGSISYYADSVKGRFTFSRDNSKNTVSLQMNSPRPEDTAVYYCAKGEYDSSGYNAFDIWGKGTLVTVSSGGGGSGGGGSGGGGSQSVLTQPPSVSAAPGQKVTVSCSGSTSNIGNNYVSWYQQHPGKAPKLMIYDVSKRPSGVPDRFSGSKSGNSASLDISGLQSEDEADYYCAAWDDSLSEFLFGTGTKLTVLG
B15: N015E08 (scFv)
scFv: QMQLQESGAEVKKPGSSVKVSCKASGDTFRSYIISWVRQAPGQGLEWMGGIIPMFGTTNYAQQFQGKVTITADDSTSTSYMELRSLRSDDTAVYYCARGTNYMDVWGQGTTVTVSSGGGGSGGGGSGGGGSQSVLTQPPSVSAAPGQKVTISCSGSTSNIGNNYVSWYQQHPGKAPKLMIYDVSKRPSGVPDRFSGSKSGNSASLDISGLQSEDEADYYCAAWDDSLSEFLFGTGTKLTVLG
B16: NO15F10 (scFv)
scFv: QVQLQQSGAEVKKPGSSVKVSCKASGGTFSSYAISWVRQAPGQGLEWMGGSIPKFRTANYAKKFQGRVTITADESTSTAYMELSSLRSDDTAVYYCARGSAYNLRNAFDIWGQGTTVTVSSGGGGSGGGGSGGGGSAQSVVTQPPSVSAAPGQRVTISCSGSSSNIANNYVSWYQQLPGTAPKLLIYDNNKRPSGIPDRFSGSKSGTSATLGITGLQTGDEADYYCGTWDSSLSAYVFGTGTKVTVLG
B17: N024C01 (scFv)
scFv: QVQLQQSGAEVKNPGSSVKVSCKPSRDTLSGDNFSSSVFSWVRQAPGQGLEWMGGIIPIFGVANYAQKFQPRVTISADMSTNTAYMELSSLRSEDTAVYYCASTWELRNAFDIWGKGTLVTVSSGGGGSGGGGSGGGGSQSVLTQPPSVSAAPGQKVTISCSGSTSNIGNNYVSWYQQHPGKAPKLMIYDVSKRPSGVPDRFSGSKSGNSASLDISGLQSEDEADYYCAAWDDSLSEFLFGTGTKLTVLG

Biological target: T1, mature form of the neurokinin B …
Assay: phage display selection of scFvs; conditions not given

binding result | Binder
binds | B1
binds | B2
binds | B3
binds | B4
binds | B5
binds | B6
binds | B7
binds | B8
binds | B9
binds | B10
binds | B11
binds | B12
binds | B13
binds | B14
binds | B15
binds | B16
binds | B17
